Measurements from PMC5913840.

Experiments:
[1] = target: SavR;SavS (Staphylococcus aureus (NCTC8325?);Staphylococcus aureus (NCTC8325?)) (UniProt Q2FVF8); test: ITC; conditions: EMSA: 20 mM Tris-HCl pH 8.0, 100 mM NaCl, 25 C, 20 min; footprinting: same plus 5 mM MgCl2, 1 mM CaCl2, 25 C 30 min; ITC: 20 mM Tris-HCl pH 8.0, 100 mM NaCl …
[2] = tested on: SavR (Staphylococcus aureus (NCTC8325?)); test: ITC; conditions: EMSA: 20 mM Tris-HCl pH 8.0, 100 mM NaCl, 25 C, 20 min; footprinting: same plus 5 mM MgCl2, 1 mM CaCl2, 25 C 30 min; ITC: 20 mM Tris-HCl pH 8.0, 100 mM NaCl …

Sequence: TACGCTAATTATAGCGTACGCACTTGAGTACGTCAA (double strand) [36-bp savRS operator]
- Kd [1]: 0.0267 µM
- Kd [2]: 9.13 µM
